Data: paper doi:10.1101/2022.09.23.509211 (bioRxiv, 2022)

Target: Rabbit skeletal muscle actin (actin filaments, F-actin) (rabbit, UniProt P68135 1-377)
Experiment: co-sedimentation

B1: Mouse metallothionein-3 (MT-3), recombinant, cleaved WT MT-3 (natural protein)
chain: not shown
With B1 the Kd was greater than 20 µM.
